This passage reports Vps35/L1 PLA signal results from US20210206811A1.

The target in the assay is retromer endogenous in HeLa cells (detected through its subunit Vps35) (UniProt Q96QK1). Kind of assay: cell-based or functional assay.
retromer endogenous in HeLa cells (detected through its subunit Vps35), sequence (O75436 whole entry): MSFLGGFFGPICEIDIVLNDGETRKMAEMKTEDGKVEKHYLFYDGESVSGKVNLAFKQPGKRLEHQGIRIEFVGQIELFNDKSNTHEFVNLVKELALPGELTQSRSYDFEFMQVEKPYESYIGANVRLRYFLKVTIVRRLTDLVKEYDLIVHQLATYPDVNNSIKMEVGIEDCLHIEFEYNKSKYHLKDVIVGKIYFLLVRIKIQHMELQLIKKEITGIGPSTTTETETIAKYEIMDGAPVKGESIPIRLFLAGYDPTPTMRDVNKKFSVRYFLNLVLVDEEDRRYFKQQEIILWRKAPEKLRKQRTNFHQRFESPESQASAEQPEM

Take “3R mutant HPV16 pseudovirus (L2 with three arginines in place of RKRRKR) (from UniProt P03101 1-505)”: the Vps35/L1 PLA signal turned out to be 75 % reduction.
